# Experimental data published in patent publication US20200262877A1, “ION CHANNEL-BINDING PEPTIDES AND METHODS OF USE THEREOF” (priority 2017, published 2020).
# What was measured:
# [1] = molecular target: T1, Kir2.1 (Homo sapiens, UniProt P63252); assay: Ion channel panel (IonWorks Barracuda): Kir2.1; assay type: cell-based; details: 100% = no change, <100% = inhibition
# T1 construct: host or cells: HEK293 or CHO
# Method in brief: (§1)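 Transfected HEK293 or CHO cells were exposed for at least 5 min to peptides at 200 nM and 20 μM final, tested in duplicate, in HEPES-buffered physiological saline. Activation was taken as peptide-plus-agonist current over control current ×100, and inhibition as 1 minus that ratio ×100. Each channel's control was its own reference compound.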
# [2] = molecular target: T2, Kv1.3 (Homo sapiens, UniProt P22001); assay: cell-based; assay type: cell-based; details: 100% = no change, <100% = inhibition
# T2 construct: host or cells: HEK293 or CHO
# Method in brief: as §1
# [3] = molecular target: T3, Kv1.2 (Homo sapiens, UniProt P16389); assay: cell-based; assay type: cell-based; details: 100% = no change, <100% = inhibition
# T3 construct: host or cells: HEK293 or CHO
# Method in brief: as §1
# [4] = molecular target: T4, Kv1.1 (Homo sapiens, UniProt Q09470); assay: cell-based; assay type: cell-based; details: 100% = no change, <100% = inhibition
# T4 construct: host or cells: HEK293 or CHO
# Method in brief: as §1
# [5] = tested on: GABA; assay: Ion channel panel (IonWorks Barracuda): GABA; assay type: cell-based; details: 100% = no change, <100% = inhibition
# Method in brief: as §1
# [6] = molecular target: hERG (Homo sapiens, UniProt Q12809); assay: in vitro; details: 100% = no change, <100% = inhibition
# Method in brief: as §1
# [7] = molecular target: Nav1.5 (Homo sapiens, UniProt Q14524); assay: in vitro; details: 100% = no change; for Activity of Nav1.5 with peptide, expressed as a percentage of the reference compound: peptide at 0.2 μM; for Activity of Nav1.5 with peptide (percentage of the reference compound): peptide at 20 μM
# Sequence of Nav1.5 (Q14524 whole entry): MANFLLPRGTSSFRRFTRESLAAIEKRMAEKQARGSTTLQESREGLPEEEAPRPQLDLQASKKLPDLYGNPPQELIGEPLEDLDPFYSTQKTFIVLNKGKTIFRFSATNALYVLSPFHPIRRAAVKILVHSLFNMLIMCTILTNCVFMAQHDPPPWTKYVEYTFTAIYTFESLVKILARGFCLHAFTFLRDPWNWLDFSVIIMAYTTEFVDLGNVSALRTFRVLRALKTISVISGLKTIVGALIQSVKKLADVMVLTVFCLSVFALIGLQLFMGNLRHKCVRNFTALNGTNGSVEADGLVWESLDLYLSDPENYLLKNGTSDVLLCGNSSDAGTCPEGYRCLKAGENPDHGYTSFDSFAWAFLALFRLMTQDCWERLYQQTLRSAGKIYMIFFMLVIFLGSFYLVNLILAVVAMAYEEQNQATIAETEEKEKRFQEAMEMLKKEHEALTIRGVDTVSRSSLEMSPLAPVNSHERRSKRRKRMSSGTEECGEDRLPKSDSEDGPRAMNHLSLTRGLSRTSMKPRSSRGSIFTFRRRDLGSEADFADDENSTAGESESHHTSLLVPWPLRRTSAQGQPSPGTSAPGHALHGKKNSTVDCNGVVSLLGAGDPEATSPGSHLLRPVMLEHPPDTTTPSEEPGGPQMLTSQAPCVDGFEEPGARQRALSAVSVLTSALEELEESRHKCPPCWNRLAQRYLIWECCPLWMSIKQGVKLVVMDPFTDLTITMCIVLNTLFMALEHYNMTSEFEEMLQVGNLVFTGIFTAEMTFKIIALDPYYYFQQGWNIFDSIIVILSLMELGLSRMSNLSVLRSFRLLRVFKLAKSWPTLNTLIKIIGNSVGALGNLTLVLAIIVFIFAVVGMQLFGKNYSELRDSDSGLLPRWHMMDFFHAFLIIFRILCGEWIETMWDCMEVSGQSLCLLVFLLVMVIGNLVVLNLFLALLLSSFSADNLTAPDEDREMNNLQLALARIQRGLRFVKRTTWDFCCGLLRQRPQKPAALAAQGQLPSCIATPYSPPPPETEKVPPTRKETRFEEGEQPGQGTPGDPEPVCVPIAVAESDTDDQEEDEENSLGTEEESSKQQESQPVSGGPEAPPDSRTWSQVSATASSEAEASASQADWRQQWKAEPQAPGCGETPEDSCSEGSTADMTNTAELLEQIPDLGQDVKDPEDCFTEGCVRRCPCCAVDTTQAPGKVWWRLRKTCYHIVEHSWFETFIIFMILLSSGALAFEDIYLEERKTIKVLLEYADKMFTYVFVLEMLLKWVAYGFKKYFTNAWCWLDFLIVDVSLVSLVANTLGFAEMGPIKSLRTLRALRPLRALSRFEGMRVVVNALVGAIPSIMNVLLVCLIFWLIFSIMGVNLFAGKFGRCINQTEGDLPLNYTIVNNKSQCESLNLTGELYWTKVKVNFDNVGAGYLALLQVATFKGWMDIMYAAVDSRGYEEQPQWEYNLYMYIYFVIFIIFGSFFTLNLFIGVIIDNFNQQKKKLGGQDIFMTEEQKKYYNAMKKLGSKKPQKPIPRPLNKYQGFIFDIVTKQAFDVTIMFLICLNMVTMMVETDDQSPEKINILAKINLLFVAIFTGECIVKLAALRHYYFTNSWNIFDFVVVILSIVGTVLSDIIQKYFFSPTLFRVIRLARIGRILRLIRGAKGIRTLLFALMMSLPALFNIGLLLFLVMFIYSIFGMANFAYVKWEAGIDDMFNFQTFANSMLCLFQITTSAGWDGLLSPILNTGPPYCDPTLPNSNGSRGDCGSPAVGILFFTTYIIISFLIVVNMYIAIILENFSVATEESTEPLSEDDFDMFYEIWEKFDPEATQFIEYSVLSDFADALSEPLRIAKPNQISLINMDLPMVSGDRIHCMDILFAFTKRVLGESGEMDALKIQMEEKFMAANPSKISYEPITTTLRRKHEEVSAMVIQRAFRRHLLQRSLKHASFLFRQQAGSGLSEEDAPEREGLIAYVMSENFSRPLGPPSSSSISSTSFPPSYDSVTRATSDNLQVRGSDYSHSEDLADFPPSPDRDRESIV
# Method in brief: as §1
# [8] = molecular target: T5, α3β4 (Homo sapiens, UniProt P30926+P32297); assay: Ion channel panel (IonWorks Barracuda): α3β4; assay type: cell-based; details: 100% = no change, <100% = inhibition
# T5 construct: host or cells: HEK293 or CHO
# T5 sequence (P30926 22-498): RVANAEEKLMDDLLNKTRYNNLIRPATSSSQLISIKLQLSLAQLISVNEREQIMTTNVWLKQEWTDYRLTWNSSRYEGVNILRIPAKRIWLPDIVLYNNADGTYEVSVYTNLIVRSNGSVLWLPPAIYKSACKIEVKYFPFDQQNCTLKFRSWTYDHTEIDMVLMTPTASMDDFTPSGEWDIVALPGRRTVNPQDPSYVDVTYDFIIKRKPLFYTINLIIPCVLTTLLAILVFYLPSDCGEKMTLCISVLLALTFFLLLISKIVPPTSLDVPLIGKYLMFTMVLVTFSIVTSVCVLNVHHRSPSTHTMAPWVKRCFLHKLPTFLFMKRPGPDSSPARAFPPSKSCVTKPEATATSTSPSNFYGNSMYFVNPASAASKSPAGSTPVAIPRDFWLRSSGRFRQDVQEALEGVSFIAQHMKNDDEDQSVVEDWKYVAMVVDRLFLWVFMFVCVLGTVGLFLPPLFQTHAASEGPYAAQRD
# T5 sequence (P32297 32-505): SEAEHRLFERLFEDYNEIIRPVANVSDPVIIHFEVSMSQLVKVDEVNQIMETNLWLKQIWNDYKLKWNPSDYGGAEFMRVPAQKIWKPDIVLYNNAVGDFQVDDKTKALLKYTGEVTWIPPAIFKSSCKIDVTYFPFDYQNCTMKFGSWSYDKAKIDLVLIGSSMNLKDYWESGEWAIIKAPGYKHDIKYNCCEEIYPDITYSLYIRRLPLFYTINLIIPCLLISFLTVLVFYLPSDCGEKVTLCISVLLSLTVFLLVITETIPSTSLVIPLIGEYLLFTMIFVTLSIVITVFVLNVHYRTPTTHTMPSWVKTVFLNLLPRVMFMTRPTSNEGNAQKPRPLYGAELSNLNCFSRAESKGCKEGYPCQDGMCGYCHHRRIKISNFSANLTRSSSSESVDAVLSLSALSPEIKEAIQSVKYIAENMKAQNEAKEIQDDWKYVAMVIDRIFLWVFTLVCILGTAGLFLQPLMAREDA
# Method in brief: as §1
# [9] = molecular target: T6, Cav2.2 (Homo sapiens, UniProt Q00975); assay: cell-based; details: 100% = no change, <100% = inhibition
# T6 construct: host or cells: HEK293 or CHO
# Method in brief: as §1
# [10] = molecular target: T7, Cav2.1 (Homo sapiens, UniProt O00555); assay: cell-based; details: 100% = no change, <100% = inhibition
# T7 construct: host or cells: HEK293 or CHO
# Method in brief: as §1
# [11] = molecular target: T8, Kv2.1 (Homo sapiens, UniProt Q14721); assay: cell-based; details: 100% = no change, <100% = inhibition
# T8 construct: host or cells: HEK293 or CHO
# Method in brief: as §1
# [12] = molecular target: T9, TRPA1 (Homo sapiens, UniProt O75762); assay: Ion channel panel (IonWorks Barracuda): TRPA1; assay type: cell-based; details: 100% = no change, <100% = inhibition
# T9 construct: host or cells: HEK293 or CHO
# Method in brief: as §1
# [13] = molecular target: T10, NR2B (Homo sapiens, UniProt Q13224); assay: Ion channel panel (IonWorks Barracuda): NR2B; assay type: cell-based; details: 100% = no change, <100% = inhibition
# T10 construct: host or cells: HEK293 or CHO
# Method in brief: as §1
# [14] = molecular target: T11, NR2A (Homo sapiens, UniProt Q12879); assay: Ion channel panel (IonWorks Barracuda): NR2A; assay type: cell-based; details: 100% = no change, <100% = inhibition
# T11 construct: host or cells: HEK293 or CHO
# Method in brief: as §1
# [15] = molecular target: T12, Nav1.7 (Homo sapiens, UniProt Q15858); assay: cell-based; assay type: cell-based; details: 100% = no change; for Activity of Nav1.7 with peptide, expressed as a percentage of the reference compound: peptide at 0.2 μM; for Activity of Nav1.7 with peptide (percentage of the reference compound): peptide at 20 μM
# T12 construct: host or cells: HEK293 or CHO
# T12 sequence (Q15858 whole entry): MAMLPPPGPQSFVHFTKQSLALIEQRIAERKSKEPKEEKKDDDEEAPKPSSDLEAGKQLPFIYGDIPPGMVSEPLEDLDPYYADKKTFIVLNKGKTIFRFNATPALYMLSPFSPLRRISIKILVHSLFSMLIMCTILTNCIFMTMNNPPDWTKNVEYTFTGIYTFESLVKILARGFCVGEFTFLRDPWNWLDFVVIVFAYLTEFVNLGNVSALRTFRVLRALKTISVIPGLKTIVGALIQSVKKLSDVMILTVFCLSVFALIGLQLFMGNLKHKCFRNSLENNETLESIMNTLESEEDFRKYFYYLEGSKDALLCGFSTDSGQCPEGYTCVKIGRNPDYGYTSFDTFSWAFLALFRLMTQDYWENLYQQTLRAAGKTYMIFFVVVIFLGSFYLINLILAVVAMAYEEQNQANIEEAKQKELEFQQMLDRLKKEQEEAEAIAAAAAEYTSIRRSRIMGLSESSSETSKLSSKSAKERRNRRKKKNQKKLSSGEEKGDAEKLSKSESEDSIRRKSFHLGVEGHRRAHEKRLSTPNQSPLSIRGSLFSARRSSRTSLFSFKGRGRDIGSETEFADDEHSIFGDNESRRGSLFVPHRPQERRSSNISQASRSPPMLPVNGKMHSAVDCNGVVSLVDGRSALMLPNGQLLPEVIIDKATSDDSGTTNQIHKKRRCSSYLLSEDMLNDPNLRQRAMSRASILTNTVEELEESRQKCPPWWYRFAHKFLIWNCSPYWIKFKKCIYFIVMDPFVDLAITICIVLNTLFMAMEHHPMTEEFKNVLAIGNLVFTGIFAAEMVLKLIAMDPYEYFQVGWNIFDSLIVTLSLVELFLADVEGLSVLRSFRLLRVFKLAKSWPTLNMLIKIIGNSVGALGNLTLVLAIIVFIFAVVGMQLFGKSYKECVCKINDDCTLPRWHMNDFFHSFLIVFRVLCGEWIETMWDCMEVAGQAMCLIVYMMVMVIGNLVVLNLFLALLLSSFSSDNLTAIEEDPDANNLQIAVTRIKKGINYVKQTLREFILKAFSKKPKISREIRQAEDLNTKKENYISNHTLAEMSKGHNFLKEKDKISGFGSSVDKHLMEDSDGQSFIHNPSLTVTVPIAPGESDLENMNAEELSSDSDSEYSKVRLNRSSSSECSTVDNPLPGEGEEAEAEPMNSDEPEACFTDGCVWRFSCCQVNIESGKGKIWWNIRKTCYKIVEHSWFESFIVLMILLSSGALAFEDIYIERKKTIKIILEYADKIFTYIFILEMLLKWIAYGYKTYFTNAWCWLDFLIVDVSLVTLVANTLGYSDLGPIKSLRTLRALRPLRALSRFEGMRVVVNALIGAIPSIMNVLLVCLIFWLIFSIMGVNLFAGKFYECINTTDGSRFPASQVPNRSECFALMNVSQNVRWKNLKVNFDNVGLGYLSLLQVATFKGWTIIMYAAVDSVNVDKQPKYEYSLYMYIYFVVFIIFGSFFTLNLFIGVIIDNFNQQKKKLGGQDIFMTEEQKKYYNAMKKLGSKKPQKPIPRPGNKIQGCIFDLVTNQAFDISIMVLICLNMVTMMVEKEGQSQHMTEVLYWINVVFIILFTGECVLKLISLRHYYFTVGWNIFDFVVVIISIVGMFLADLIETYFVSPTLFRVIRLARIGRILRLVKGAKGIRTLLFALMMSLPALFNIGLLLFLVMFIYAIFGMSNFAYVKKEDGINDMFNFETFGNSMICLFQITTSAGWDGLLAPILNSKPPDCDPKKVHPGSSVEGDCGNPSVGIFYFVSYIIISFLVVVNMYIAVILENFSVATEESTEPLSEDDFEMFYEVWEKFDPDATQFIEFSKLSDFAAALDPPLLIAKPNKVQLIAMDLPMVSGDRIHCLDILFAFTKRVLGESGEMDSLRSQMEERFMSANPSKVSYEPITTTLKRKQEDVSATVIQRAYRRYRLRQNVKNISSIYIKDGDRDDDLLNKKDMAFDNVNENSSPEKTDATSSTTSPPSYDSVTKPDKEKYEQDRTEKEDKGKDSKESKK
# [16] = molecular target: T13, 5HT3a (Homo sapiens, UniProt P46098); assay: Ion channel panel (IonWorks Barracuda): 5HT3a; assay type: cell-based
# T13 construct: host or cells: HEK293 or CHO
# T13 sequence (P46098 whole entry, looked up): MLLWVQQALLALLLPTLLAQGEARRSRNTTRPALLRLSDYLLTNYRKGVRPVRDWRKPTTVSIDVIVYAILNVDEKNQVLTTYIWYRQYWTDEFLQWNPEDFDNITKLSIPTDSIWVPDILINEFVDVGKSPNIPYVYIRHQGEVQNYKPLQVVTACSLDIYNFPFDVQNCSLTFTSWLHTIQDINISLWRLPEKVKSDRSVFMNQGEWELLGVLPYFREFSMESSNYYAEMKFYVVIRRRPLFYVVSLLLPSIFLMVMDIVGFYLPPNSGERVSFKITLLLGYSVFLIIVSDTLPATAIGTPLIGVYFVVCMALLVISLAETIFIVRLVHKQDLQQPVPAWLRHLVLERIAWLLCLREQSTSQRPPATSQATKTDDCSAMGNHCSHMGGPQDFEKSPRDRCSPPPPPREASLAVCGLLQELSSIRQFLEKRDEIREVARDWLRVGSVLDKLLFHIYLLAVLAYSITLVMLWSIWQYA
# Method in brief: as §1
# [17] = molecular target: T14, α4β2 (Homo sapiens, UniProt P17787+P43681); assay: Ion channel panel (IonWorks Barracuda): α4β2; assay type: cell-based; details: 100% = no change, <100% = inhibition
# T14 construct: host or cells: HEK293 or CHO
# Method in brief: as §1
# [18] = molecular target: T15, TRPV1 (Homo sapiens, UniProt Q8NER1); assay: Ion channel panel (IonWorks Barracuda): TRPV1; assay type: cell-based; details: 100% = no change, <100% = inhibition
# T15 construct: host or cells: HEK293 or CHO
# Method in brief: as §1
# [19] = first of two Nav1.5 columns (probably TP1)
# [20] = second of two Nav1.5 columns (probably TP2)
# [21] = first of two Nav1.7 columns (probably TP1)
# [22] = second of two Nav1.7 columns (probably TP2)
substance,measurement,setting,value
18 (GSNCAGYMRECKEKLCCSGYVCSSRWKWCVLPAPWRR) [compound 18],"Activity of Kir2.1 with peptide, expressed as a percentage of the reference compound",[1]; peptide at 0.2 μM,104%
same,Activity of Kir2.1 with peptide (percentage of the reference compound),[1]; peptide at 20 μM,93%
same,"Activity of Kv1.3 with peptide, expressed as a percentage of the reference compound",[2]; peptide at 0.2 μM,87%
same,Activity of Kv1.3 with peptide (percentage of the reference compound),[2]; peptide at 20 μM,7%
same,"Activity of Kv1.2 with peptide, expressed as a percentage of the reference compound",[3]; peptide at 0.2 μM,67%
same,Activity of Kv1.2 with peptide (percentage of the reference compound),[3]; peptide at 20 μM,30%
same,"Activity of Kv1.1 with peptide, expressed as a percentage of the reference compound",[4]; peptide at 0.2 μM,98%
same,Activity of Kv1.1 with peptide (percentage of the reference compound),[4]; peptide at 20 μM,78%
same,"Activity of GABA with peptide, expressed as a percentage of the reference compound",[5]; peptide at 0.2 μM,113%
same,Activity of GABA with peptide (percentage of the reference compound),[5]; peptide at 20 μM,106%
same,"Activity of hERG with peptide, expressed as a percentage of the reference compound",[6]; peptide at 0.2 μM,98%
same,Activity of hERG with peptide (percentage of the reference compound),[6]; peptide at 20 μM,62%
same,"Activity of Nav1.5 with peptide, expressed as a percentage of the reference compound",[7]; [19],104%
same,"Activity of Nav1.5 with peptide, expressed as a percentage of the reference compound",[7]; [20],106%
same,Activity of Nav1.5 with peptide (percentage of the reference compound),[7]; [19],87%
same,Activity of Nav1.5 with peptide (percentage of the reference compound),[7]; [20],112%
same,"Activity of a3b4 with peptide, expressed as a percentage of the reference compound",[8]; peptide at 0.2 μM,110%
same,Activity of a3b4 with peptide (percentage of the reference compound),[8]; peptide at 20 μM,89%
same,"Activity of Cav2.2 with peptide, expressed as a percentage of the reference compound",[9]; peptide at 0.2 μM,132%
same,Activity of Cav2.2 with peptide (percentage of the reference compound),[9]; peptide at 20 μM,124%
same,"Activity of Cav2.1 with peptide, expressed as a percentage of the reference compound",[10]; peptide at 0.2 μM,97%
same,Activity of Cav2.1 with peptide (percentage of the reference compound),[10]; peptide at 20 μM,98%
same,"Activity of Kv2.1 with peptide, expressed as a percentage of the reference compound",[11]; peptide at 0.2 μM,93%
same,Activity of Kv2.1 with peptide (percentage of the reference compound),[11]; peptide at 20 μM,65%
same,"Activity of TRPA1 with peptide, expressed as a percentage of the reference compound",[12]; peptide at 0.2 μM,130%
same,Activity of TRPA1 with peptide (percentage of the reference compound),[12]; peptide at 20 μM,89%
same,"Activity of NR2B with peptide, expressed as a percentage of the reference compound",[13]; peptide at 0.2 μM,107%
same,Activity of NR2B with peptide (percentage of the reference compound),[13]; peptide at 20 μM,78%
same,"Activity of NR2A with peptide, expressed as a percentage of the reference compound",[14]; peptide at 0.2 μM,98%
same,Activity of NR2A with peptide (percentage of the reference compound),[14]; peptide at 20 μM,79%
same,"Activity of Nav1.7 with peptide, expressed as a percentage of the reference compound",[15]; [21],85%
same,"Activity of Nav1.7 with peptide, expressed as a percentage of the reference compound",[15]; [22],84%
same,Activity of Nav1.7 with peptide (percentage of the reference compound),[15]; [21],43%
same,Activity of Nav1.7 with peptide (percentage of the reference compound),[15]; [22],55%
same,Activity of 5HT3a with peptide (percentage of the reference compound),[16],79%
same,"Activity of 5HT3a with peptide, expressed as a percentage of the reference compound",[16],95%
same,"Activity of a4b2 with peptide, expressed as a percentage of the reference compound",[17]; peptide at 0.2 μM,109%
same,Activity of a4b2 with peptide (percentage of the reference compound),[17]; peptide at 20 μM,92%
same,"Activity of TRPV1 with peptide, expressed as a percentage of the reference compound",[18]; peptide at 0.2 μM,93%
same,Activity of TRPV1 with peptide (percentage of the reference compound),[18]; peptide at 20 μM,61%
